In US20190070251A1:
Blank lines part the entries; values can stand above or below the substance they belong to.

Experiments:
[1] = biological target: GPR54 G-Protein coupled receptor (cloned human GPR54) (human) (UniProt Q969F8); assay: cell-based or functional assay
[2] = biological target: human δ opioid receptor (human) (UniProt P41143); assay: Kd of the radioligand, previously determined under these assay conditions; membranes of CHO-K1 cells with recombinant human δ opioid receptor (biphalin series)
[3] = biological target: human δ opioid receptor (human) (UniProt P41143); assay: Kd of the radioligand, previously determined under these assay conditions; membranes of CHO-K1 cells with recombinant human δ opioid receptor (OGF series)

Sequence of human δ opioid receptor (human) (P41143 whole entry, stated change not applied): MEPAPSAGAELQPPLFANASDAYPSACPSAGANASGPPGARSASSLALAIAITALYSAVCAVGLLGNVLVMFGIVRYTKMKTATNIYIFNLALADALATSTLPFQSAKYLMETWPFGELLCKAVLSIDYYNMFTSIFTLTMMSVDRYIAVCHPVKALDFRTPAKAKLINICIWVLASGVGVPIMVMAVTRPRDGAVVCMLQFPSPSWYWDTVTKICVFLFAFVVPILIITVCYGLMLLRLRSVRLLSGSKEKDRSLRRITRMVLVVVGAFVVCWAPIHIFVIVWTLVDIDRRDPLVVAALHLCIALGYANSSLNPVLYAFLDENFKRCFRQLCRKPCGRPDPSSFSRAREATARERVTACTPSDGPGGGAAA

EC50 (nM) of agonist activation at GPR54; time of release 2 h [1]: 200 nM
Substance: mono-[mPEG-SBC-30K]-[Kisspeptin-10] (peptide)

EC50 (nM) of agonist activation at GPR54 (FLIPR calcium flux) [1]: 10 nM
Fold change compared to metastin [1]: 1 fold
Substance: Kisspeptin-10 (peptide)

Kd [2]: 3.9 nM
Kd [3]: 3 nM
Substance: [3H] DPDPE (peptide)
